Test results from patent publication US20110130444.

Key:
Test in all cases: cell_activity
[1] = tested on: Sleeping Beauty SB11 transposase; details: HEK293 transposition; 2.9 CHO, 2.7 HeLa, 1.0 (inactive) H1299; excision PCR positive
[2] = tested on: piggyBac transposase; details: HEK293 transposition; 9.8 CHO, 14.5 HeLa, 5.7 H1299; excision PCR positive
[3] = tested on: Tol2 transposase; details: HEK293 transposition; 3.3 CHO, 5.4 HeLa, 4.1 H1299

Substance: Sleeping Beauty terminal repeat donor plasmid
- activity (fold over control) [1]: 8.1

Substance: TGATTATCTTTCTAGGG (double strand) [piggyBac terminal repeat donor (printed repeat end)]
- activity (fold over control) [2]: 115

Substance: Tol2 terminal repeat donor plasmid
- activity (fold over control) [3]: 93.9
